According to patent publication US20220017615A1 (SHANGHAI PHARMAEXPLORER, published 2022):
Where a chain is given by its changes, count along the chain named. Read-outs that look alike come from different tables or passages of the source.

T1: mouse CD47, on CHOK1/mCD47 cells (mouse, UniProt Q61735 19-303)
T1 construct: whole, on cells; also called murine CD47
T1 sequence (looked up): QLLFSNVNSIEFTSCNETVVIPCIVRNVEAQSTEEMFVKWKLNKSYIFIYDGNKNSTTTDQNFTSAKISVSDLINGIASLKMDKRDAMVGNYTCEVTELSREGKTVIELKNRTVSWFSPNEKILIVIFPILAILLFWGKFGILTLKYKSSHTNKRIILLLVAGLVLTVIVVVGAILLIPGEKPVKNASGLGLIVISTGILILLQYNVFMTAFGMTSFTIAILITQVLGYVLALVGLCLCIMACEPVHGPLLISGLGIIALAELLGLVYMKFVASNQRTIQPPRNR

B1: c95E2D10 (antibody, V domains shown)
VH: QIQLQQSGPELVKPGASMKISCKASGYPFTDYYIHWVKQKPGQGLEWIGWIYPGSGNNKYNEKFKGKATLTVDTSPSTVYMQLSSLTSEDTAVYFCARRAGNYFDYWGQGTTLTVSS
VL: NIVMTQSPKSMSRSVGERVTLSCRASENVRTYVFWYQQKPGLSPKLLIYGASNRYIGVPDRFTGSGSATDFTLTISSVQAEDLADYHCGQSYSYPLTFGAGTKLELK
B2: 29A03 WT (antibody, V domains shown)
VH: EVQLQQSGAELVKPGASVKMSCKASGYTFTNYWITWVKQRPGQGLEWIGDIYPVSGGTDYNEKFKTRATLTVDTSSSTAYMHLSSLTSEDSAVYYCARKGRGGVDYWGQGTTLTVSS
VL: DILMTQTPLSLPVSLGDQASISCRSSQSIVHSNGNTYLEWYLQKPGQSPKLLIYKVSNRFSGVPDRFSGSGSGTDFTLKISRVEAEDLGVYFCSQSTHVPYTFGGGTKLEIK
notes: WT = NG site of CDR-L1 not mutated
B3: 29A03 QG (antibody, V domains shown)
VH: B2 VH
VL: B2 VL with N33Q
B4: c29A03NA (antibody, V domains shown)
VH: B2 VH
VL: B2 VL with G34A
notes: Phage-derived clone 29A03 with the NG site of CDRL1 mutated to NA

How the values were obtained:
[1] = biological target: T2, His-tagged CD47 recombinant protein, CD47-His (human, UniProt Q08722 19-141, limits assumed); experiment: BLI (Octet Red 96), antibody on AHC sensor, CD47-His 100 nM
T2 construct: it is not restated for CD47-His; also called human CD47-His protein; antigen CD47-His; not shown: His tag

[2] = biological target: T3, biotin-labeled CD47 extracellular domain protein (CD47-ECD) (UniProt Q08722 19-139, limits assumed, biotin-labeled (sites not given)); experiment: blocking ELISA: SIRPα-hFc coated, biotin-labeled CD47-ECD added with the antibody, OD450; blocked ligand SIRPα-hFc
T3 construct: extracellular domain; also called CD47 protein

[3] = biological target: T4, cynomolgus CD47, on CHOK1-cCD47 stable cell line (cynomolgus); experiment: flow cytometry (FACS) on CHOK1-cynoCD47 cells, mean fluorescence intensity
T4 construct: whole, on cells; check before use; also called CHOK1/cynoCD47; monkey-derived CD47
Method: (§1) The CHOK1-hCD47 stable cell lines and CHOK1-cCD47 stable cell lines were expanded to 90% confluence in a T-75 cell culture flask, the medium was exhausted, washed twice with HBSS buffer (Hanks balanced salt solution) (purchased from Invitrogen), and then treated and collected with enzyme-free cell dissociation solution (Versene solution: purchased from Life technology). The cells were washed twice with HBSS buffer. After counted, the cells were diluted with HBSS to 2×10⁶ cells per ml, added with 1% goat serum blocking solution, wherein the percentage was the mass percantage, incubated on ice for 30 minutes, and then washed twice with HBSS by centrifugation. […] The plate was washed 3 times with FACS buffer by centrifugation, added with 100 μl fixative solution [4% (v/v) Paraformaldehyde] per well to suspend the cells. 10 minutes later, it was washed twice with FACS buffer by centrifugation. The cells were suspended with 100 microliters of FACS buffer, FACS (FACS Calibur, purchased from BD) was used for detection and the results were analyzed.

[4] = biological target: T5, human CD47, full length, on transfected cells (human, UniProt Q08722 19-323); experiment: flow cytometry (FACS) on CHOK1-hCD47 cells, mean fluorescence intensity
T5 construct: whole, on cells; also called CHOK1-hCD47
Method: as §1

[5] = biological target: T1, mouse CD47, on CHOK1/mCD47 cells; experiment: flow cytometry (FACS) on CHOK1-mCD47 cells, mean fluorescence intensity
[6] = biological target: T3, biotin-labeled CD47 extracellular …; experiment: blocking ELISA: SIRPα-hFc coated, biotin-labeled CD47-ECD added with the antibody, OD450; blocked ligand SIRPα-hFc; remark: listed apart in the source

| Binder | Kd [1] [nM] | koff [1] [s⁻¹] | kon [1] [M⁻¹ s⁻¹] | IC50 (read off the curve) [2] [nM] | EC50 (read off the curve) [3] [nM] | EC50 (read off the curve) [4] [nM] | EC50 (read off the curve) [5] [nM] | IC50 (read off the curve) [6] [nM] |
| --- | --- | --- | --- | --- | --- | --- | --- | --- |
| B1 | 10.2 | 0.00358 | 350000 | ~1 |  |  |  |  |
| B2 |  |  |  |  | ~3 | ~5 | ~10 |  |
| B3 |  |  |  |  | ~3 | ~5 | ~10 | ~3 |
| B4 | 4.69 | 0.00207 | 442000 |  | ~3 | ~5 | ~10 | ~1 |
